# The DeepSol protein solubility set
# Assay: soluble on expression in E. coli; label from the status in PepcDB or PDB records
row,Sequence,soluble on expression in E. coli
1,MNYAGSEKRVAIEEKKKIVEFLWKRNEEQEIVGHIYIGRIVRTIAGMNAAFVNIGLEKHAYLSYDDVPSAYRIHEGQAVLVQVVKEAIDTKGPKLTANIEFTGKYVVYMPYDEMRAVSRKIKNNKRRQQLLQIEVEGTGGYIFRSASEKGEIEEIQAEMQRLQQLYEELKRKEEQGKAPLLLHRPATFLDRVFQENPIETIEKVVVDTRSIVKELEEKVGKEKVSFYNEKSSMFNHFGIEREIEKALQKIVWLPNGAYLIVEQMETMTVIDVNTGKFTGKQNLQDTVLRTNELAAEEIARQLRLRDIGGMILIDFINMKRREDKEKVRECLVAAMQNDRTYTRVLGFTELGILEMTRKRKKHSLRDVLLEECAPCKATGYVMSYETIAYELERELLTYGNIEDEAVLISAPKELQKQFLQKELQKNIPFEIYFKDDMIEKYAIIRFGSKKEIVERKNS,not soluble
2,MNYELIVVGGGPAGLAAAYEAYNNGIKNILILERDKELGGILNQCIHNGFGLHTFKEELTGPEYADRFIEMVKDTNVEVKLNTMVLEITKDKKVYAINSKEGYMELEAKAIILSMGCRERTRGAINIPGDRPAGVFTAGAAQRYINVEGYMPGKEVVILGSGDIGLIMARRMTLEGAKVKAVVELCPYSNGLNRNIVQCLNDYNIPLYLSHTVTDIIGKERLEKVIIAKVDENRRPIKGTEIEFDADTLLLSVGLIPENELSSNAGIELDRRTNGLRVTESMETSIDGIFACGNVVHVHDLVDFVTEESKRTGASAAKYIKGELKKDKYVNIVNGTNVNYTVPQKLNVDDVEDRLTIFMRVNNIYHNKVLVVRSKEEVIAKFKRAHLAPSEMEKVVLGKAFLDKIKSDITISLEDGE,not soluble
3,MNYSLEDLPNSGKNPRVYMDIVLNNEIIGRLQIKLFRDAFPAGVENFVQLTNGKTYRVNSNGTGKYKYNRHINRTYEGCKFHNVLHNNYIVSGDIYNSNGSSAGTVYCDEPIPPVFGDYFYPHESKGLLSLVPYTDESGNRYYDSTFMITLDDIRPSNVLDELDRDQVVIGQVYGGLDVLDKINSMIKPYAGRKYPTFSIGKCGAYLDSSQAQRKRPVNVNGTKRFLNKPTRVN,soluble
4,MNYVERYIEQFLRATVRNNIKHYLLMLDEKMKNLDDYMRYLITKKEQLSKLIDSLMLTLENKYIDIAEAFQIQCAREINNQEIENIKSELNKVEAYYAQIETQIQQTSTEKIATEKTSYLINYMNAVALEHHHHHH,soluble
5,MPADDLQQALNNSQNGDVITLGPGSYFGNFIISNQVTLRSNNKGEAIIDSQGKGHGLWLKNSQITIENLTITNWGHDLTDQNSGIYSHGKIDNNKVPSLTIRNNILIGDGFGIWLNQADKAIISHNRVKGNLTLRSADRGNGIQVANVTNSHVFLNEVSETRDGVYVISSQNNIIEQNTMHHLRYGIHYMYSYDNTVKNNTAYDTRAGYALMSSRRLTITGNKTTNSEDYGFLLNFITQSTFSHNYVKNVWTKPENKVLGRDGKGLFVYNSGYNTVKHNIIDTAEIGIHLTAGSENIKIFGNSFINNPTQVKYVSNKKQEWSKDGRGNYWSNYLGWDMGNDGIGDTIFEPNDGIDKLVWQYPEMKMIMDSPAILILRWVQRQFPVLKPPGVKDSFPLMSAPSLTKNEQAATPLAVTTSTFTKSNSAQSANTTSASLKELEHHHHHH,soluble
6,MPAENIVEVHHLKKSVGQGEHELSILTGVELVVKRGETIALVGESGSGKSTLLAILAGLDDGSSGEVSLVGQPLHNMDEEARAKLRAKHVGFVFQSFMLIPTLNALENVELPALLRGESSAESRNGAKALLEQLGLGKRLDHLPAQLSGGEQQRVALARAFNGRPDVLFADEPTGNLDRQTGDKIADLLFSLNREHGTTLIMVTHDLQLAARCDRCLRLVNGQLQEEA,soluble
7,MPAENSVEVHRLRKSVGQGEHELSILTGVELVVKRGETIALIGESGSGKSTLLAILAGLDDGSSGEVSLVGKPLHQMDEEARAQLRAQHVGFVFQSFMLIPTLNALENVELPALLRGENSGQSKAGAKALLEQLGLGKRLDHLPAQLSGGEQQRVALARAFNGRPDVLFADEPTGNLDRQTGDKIADLLFSLNREHGTTLILVTHDPALAARCDRRLRLVNGQLQEEA,not soluble
8,MPAVSKGDGMRGLAVFISDIRNCKSKEAEIKRINKELANIRSKFKGDKALDGYSKKKYVCKLLFIFLLGHDIDFGHMEAVNLLSSNRYTEKQIGYLFISVLVNSNSELIRLINNAIKNDLASRNPTFMGLALHCIANVGSREMAEAFAGEIPKILVAGDTMDSVKQSAALCLLRLYRTSPDLVPMGDWTSRVVHLLNDQHLGVVTAATSLITTLAQKNPEEFKTSVSLAVSRLSRIVTSASTDLQDYTYYFVPAPWLSVKLLRLLQCYPPPEDPAVRGRLTECLETILNKAQEPPKSKKVQHSNAKNAVLFEAISLIIHHDSEPNLLVRACNQLGQFLQHRETNLRYLALESMCTLASSEFSHEAVKTHIETVINALKTERDVSVRQRAVDLLYAMCDRSNAQQIVAEMLSYLETADYSIREEIVLKVAILAEKYAVDYTWYVDTILNLIRIAGDYVSEEVWYRVIQIVINRDDVQGYAAKTVFEALQAPACHENLVKVGGYILGEFGNLIAGDPRSSPLIQFNLLHSKFHLCSVPTRALLLSTYIKFVNLFPEVKATIQDVLRSDSQLKNADVELQQRAVEYLRLSTVASTDILATVLEEMPPFPERESSILAKLKKKKGGS,soluble
9,MPDGGFKVEVEALRRYRDTLEDFKSQADTFSDLVDRADVGDESWGLVGLATKSSYTEALGQLRDLLDRMKQGLTNTGEKFTKAAELYASNDDQGAIQLGNYEIEVDKVDEVRPAGA,not soluble
10,MPDGGLAAPDRAVLPRAMTPPPSTSRTYDAVIVGGGHNGLVAAAYLARAGRSVLVLERLDHTGGAAVSTKPFAGVDARLSRYSYLVSLLPKKIVRDLGLDFRVRARTVSSYTPVERAGRPTGLLVGGGERRTRESFARLTGSQREYDAWQRFYAMTGHVAQRVFPTLTEPLPTRDELRRRVDDETAWRALFEEPVGVAIEEHFDDDLVRGVALTDALIGTFADAHDPSLAQNRCFLYHVIGGGTGAWDVPVGGMGALTDALAGAARAAGAVLATGHEAVRIEADGHGAEVTFRSADGEGVAAARHVLVNASPRELAALTGDAPPAPAEGAQLKVNMLLTRLPRLRDPDADPREAFAGTFHIAEGYEQLAAAHARAAAGELPAAPPSEIYCHSLTDPTILGPGPAAKGMHTLTLFGLHTPARLFARDNDAVRAELLKSTLAQLDAHLAEPLADCLATDADGRPCIEARSPLDLERDLGLPGGNIFHRELSWPHAQEGTGHWGVETGRARVLLCGAGAVRGGGVSGVPGHNAAMAVLDGTTGLEHHHHHH,not soluble
11,MPEKKPVTAENSVGIDLGIEKFAILSDGIAVENPRFIKRVEKRIKKLQKQISRKKKGSKNYEKQKIRIQKKYRKLRNLRDDFHDKVSTAIAKRYDTIFIEDLNVRGMQRNHHLARSITDVSFYSFKEKLKWKADRYGKNLIEIGRFDPSSKLCSRCGNIKKDLKLSDRVYSCDACGLTIDRDYNASLDIRKIGLVKVGLVPPEFTPVEIATSGLDGIYPYRQMSVGESGRSEASAEELEHHHHHH,not soluble
12,MPGVTVKEIDQHVLTKNMAAFLKKSGKIFVPEQAVYMKTGKFKETAPTDDDWFYTRCASIMRHLYLRSPAGVGAFTKVYSGRKRNGVRPSKHCRSSDGCIRKALQALEAANMVERHPDGGRKLTPQGQRNLDRIANKIVAKQRERSAPVSMIITTLEHHHHHH,soluble
13,MPHPKLTPKCEAPPEKRLAHLEIRFKDRRHIIPPLFHNGWVGRNEDRTLLNDTIIEFYMCDWMRLEVFDEATRASSHVFHSFFLPKIKTCFKDFKENPPRRSELANHYNRFFRSKNDAETFLKKDILLIPVHLDKPKHWFLVIVHNPSGAVRRISDVNILDATNKVKSRRLSRRITGHVNCDENAGECRIIIMDSLVHSKKYREVIDKTHDSTFDHIRLWLLMSAAATDVDMFCTRFRKVVCQKLPQQKNSVDCGIFMMAFAEYFTKYNTAWQSLPTDALADLKMDDDIKSLLNSETPRQRLDELFQSLKA,not soluble
14,MPHSCSGNYNSCAYIYGVHICKVLLILRAQNVYRNGGFMGEQLIISISREYGSGGHEIARKLADRLELAFYDRCMLDEIAEQMNADVSDFHKYDEKPGNRLLSRRVGNHTNSYEEIIAQFQFDYIRKKAESGESFVVVGRCSENVLKDYDCLISVFVTGDKEHKIQRVMEHFDLSESEAYTKMRRHDRTRKQYHNRYSEGKWGDATYYDMCINSSPLGIEKTVNVLENYVKERTGNQEL,not soluble
15,MPIHVDKPDTMQNELIDIVADGLRSNQIYTFRMILKHDYGTHKSEATFQADPAGRIDLKYAKPLRGSYYDADPMGLFLGMKPCEDFAYGGYLRCTPPVPFYYLLELFDSSGTLIDSTYIKKHWMHPKLIRTELEEDFCATLFKPPGDGPFPVVLDISGTGGGIHEHKGAMLASEGFVVLCLAFFQFKYLPQKMEDVDMEYFAKAINYLIDLPFTKNVIGIQGVSFGATIVDLLTTRHGDKIKALVSINGPQVVSDYLFMQENGAPIPHLSHGQVTLEHCQFINGVMCSHRNFQIMTEKLTPETEIPWERIPSDVKIRVIGSVDDLCQPSVHATYYRQRRLKETGHDVEVELVNGGHIMEPPYFPHHELVYAKYQGFYCGYGGEVVLHAKSQEKTWSNTIKFFQKALGNTKKIQDWDRLTVVVPPRKKSKL,not soluble
16,MPIITKNTDTTCQTPPLLSIICPAYNQEAFVAQALDGFLSQQTRFNYEILINDDASTDGTARIIAQYAERHPTIIRAFYQQVNQYSQGLPCVPDLFAEARGRYIAYCEADDYWTDPRKLQLQVDFLESHPDYVITYHDAVAFDENGEYGVQLQGHLRADATALELQQARRLSTLTTCFRNVFSTMPPELNIRVAPLNDMCWWSLLGAHGKGKFMADIKPAAYRLHAGGVFSMRSDKRKLHMNLQTCSSLANYYNLQGNQALYEYFLMQTVCLSLAALTPSHKLQTLWQVASNVVVNLGRRLLPTTGKAHVQ,not soluble
17,MPIRDDISWPPSAVCSVSLILHLPGRFGHVSVAHLLLDHGADVNAQNRLGASVLTVASRGGHLGVVKLLLEAGAFVDHHHPSGEQLGLGGSRDEPLDITALMAAIQHGHEAVVRLLMEWGADPNHAARTVGWSPLMLAALTGRLGVAQQLVEKGANPDHLSVLEKTAFEVALDCKHRDLVDYLDPLTTVRPKTGQAACPPWLHRGPQIVFMWLKLRIALLEGHAELRVQPCRPLRLRKWCA,soluble
18,MPITSTTPEPGIVAVTVDYPPVNAIPSKAWFDLADAVTAAGANSDTRAVILRAEGRGFNAGVDIKEMQRTEGFTALIDANRGCFAAFRAVYECAVPVIAAVNGFCVGGGIGLVGNSDVIVASEDATFGLPEVERGALGAATHLSRLVPQHLMRRLFFTAATVDAATLQHFGSVHEVVSRDQLDEAALRVARDIAAKDTRVIRAAKEALNFIDVQRVNASYRMEQGFTFELNLAGVADEHRDAFVKKS,not soluble
19,MPKDNTWYTGAKLGWSQYSRENQLGAGAFGGYQVNPYVGFEMGYDWLGRMPRKAQGVQLTAKLGYPKLGTDDLDIYTRLGGMVWRADTSDKDGNGYISAAEASVSPVFAGGVEYVIRRRITPEIATRLEYQWTNNASDNGMLSLGVSYRFGQGEAA,soluble
20,MPKKNNTKRAPPSVPKPSGPPPRLLQLTSSDGHLLQGDIRALLLSSTLAATIRELGYDKEYCAELKPVPVNNVVGFTLKLLIEWCDKHKEDDPAIALAEKDKKNICIPSWDRHFLSRLPMSNLFDLITAAYHLDVTGLINYGCKTVANSAKGKNAEEMRELFGIPEPWEQPSTSTATWDD,not soluble
21,MPKKVVPEEARRRRRPTRQGAVLSEGLIVRTALRMLREHGTGGLTARRLGAALGADPSTLYRYFAGMDDLARAVGNELMGQALDGWTAQGDWRADLRSLGLALHSSYLAHPQAAVLTASRVSGRPREIAVDEAILGLLRGAGLTDRAAVRFYHAFIDLALAFAALDAGSLALPEEARRSDEDMWGTTYARLPAETHPNIAATAERLAARMPHSAYPVVLDTLLDGIAAELTGTAPEM,not soluble
